Experimental findings from the supplement of paper PMC12042874 are described below.

± gives the uncertainty stated by the source.

The series in a line: amyloid nucleation score (Sup35N fusion, yeast selection) (log enrichment); library NNK1; higher = more nucleation; inactive = no reads after selection. An outline of the steps:
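Output and input plasmid inserts were sequenced by Illumina after psi-negative yeast carrying Sup35N fused to peptides of 20 random codons had been induced 24 hours with 100 μM copper sulfate and grown 7 days at 30°C on medium lacking adenine and uracil. The nucleation score is the DiMSum log enrichment of output over input reads, centred on the mode score of non-aggregating sequences. Sequences with under 100 input reads were excluded.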

The substance STMFYLIFCQCTSIYANLYQ showed an amyloid nucleation score of 0.063 ± 0.41.
Regarding FVYNTSFLYSVCNNWAKRSP, the amyloid nucleation score worked out at 7.758 ± 0.053.
Consider LLNEDYTGHSCDPEGEDTR, for which the amyloid nucleation score is 0.589 ± 0.52.
On to KLVDAGFVD, for which the amyloid nucleation score came out at 0.759 ± 0.35.
As to SRTHRDGTCYHSGTVKVHLP, the amyloid nucleation score is -1.64 ± 2.7.
RKLDASHYMPVSDLEFCCMC: the amyloid nucleation score is 6.752 ± 0.048.
With LMLTARPVMFVLLCWWFRSS, the amyloid nucleation score turned out to be 0.246 ± 0.43.
On to GHYVDLKSLYPPMTCAMACM, for which the amyloid nucleation score was -0.125 ± 0.38.
Regarding VCCGPSSEEP, the amyloid nucleation score came to 0.384 ± 0.85.
With VREGPRSRSGG the figure was 0.149 ± 0.41; with HSFGKTFGDCYRRHSYLVNE, -0.437 ± 0.41; with TFVQF, -0.066 ± 0.51.
In the case of SRQRSYRDWVATFTF, the amyloid nucleation score was -0.339 ± 0.52.
The same measure for WLESLARDSCSRFIDLHEWG: -0.615 ± 1.5; for DWFWWKIVGWVRNSNMRSYS: 0.946 ± 0.6; for AGSDGQGDGEQWRNHLRPIA: -0.294 ± 0.64.
Regarding SRSRRANYGLCDIRYYNSFE, the amyloid nucleation score was determined as 0.862 ± 0.43.
Take ILMLKH: the amyloid nucleation score was -0.484 ± 0.68.
LDTGVMMEIKICIHYRDCYD displayed an amyloid nucleation score of 1.84 ± 0.21.
With GYFLPGFEMLCYNRRIWYIM the figure was -1.03 ± 0.61; with LTILCWWLYEIRR, 0.556 ± 0.55.
The same measure for WRMVAIWKNLD: -0.013 ± 0.56; for VNWFTR: 0.582 ± 0.56.
Consider LIRNKIRR, for which the amyloid nucleation score was -1.12 ± 0.93.
On to GLPLYVHVAVEVIWL, for which the amyloid nucleation score turned out to be 0.058 ± 0.65.
For AELSITASTNMESNLVNSIR, the amyloid nucleation score was -1.69 ± 2.7.
Turning to SFLSVFAMFYVQLPCHNMVS, the amyloid nucleation score was -0.15 ± 0.64.
Regarding LLRLRISEIGSRLIKVWKSW, the amyloid nucleation score came out at 0.155 ± 0.35.
For VSLINRRYCPATVFGF, the amyloid nucleation score amounted to 0.117 ± 0.4.
Take RVTVTLFYMFNNRGEGKSQA: the amyloid nucleation score is 3.44 ± 0.12.
Regarding AFPPYRIFADRLYMSSPGPA, the amyloid nucleation score amounted to 0.961 ± 0.69.
For the substance YQSHLAIFFRDGHRSSKITN, the amyloid nucleation score was -0.008 ± 1.2.
As for ICFFGCQGGGPRLRQDRCRT, the amyloid nucleation score was -0.53 ± 0.63.
With ISGLNV the figure was -0.372 ± 0.51.
With GLSIQ, the amyloid nucleation score is 0.288 ± 0.44.
Take RHFLFLLWARPTTCSIFMVG: the amyloid nucleation score is -0.454 ± 0.77.
As to TYSEVRGYLLSRFAEVIDS, the amyloid nucleation score result was “inactive”.
In turn, HVRSWI had an amyloid nucleation score of 1.76 ± 0.76.
As for WWDHVWGVR, the amyloid nucleation score worked out at 0.31 ± 0.75.
For the substance YWCAISSVSLKFLVMSYLSG, the amyloid nucleation score is -0.362 ± 1.1.
The same measure for WRAMAFVYLVASWSVGIRGR: 0.07 ± 1; for NSGRVNTLWFCLSDTMLVTS: “inactive”; for NSHHKKGHVKRAVRLLHYPV: 0.799 ± 0.84.
The same measure for YMILLSLGVFFTPVPDYFAQ: -0.385 ± 0.68.
Take IADPNRFFTLLNLPMQCREA: the amyloid nucleation score entry is “inactive”.
For LSMSCENFHLTQSSEGCSRV, the amyloid nucleation score was found to be 0.19 ± 0.51.
As for PFVQRFCL, the amyloid nucleation score stood at 0.486 ± 0.49.
Regarding YRRWKPIGVMSSSWLICVES, the amyloid nucleation score came out at 0.603 ± 0.43.
As for DAYMMLFLYSPVWECFLMKG, the amyloid nucleation score was -0.084 ± 0.28.
PGKRHGFMLRDFAMPKLSYH: the amyloid nucleation score is -0.918 ± 0.59.
Consider HSTLFGSKFWGKTQHNFDS, for which the amyloid nucleation score is -0.151 ± 1.1.
As for IQSLVFRGKRVTHTKQSLTL, the amyloid nucleation score turned out to be 0.262 ± 0.36.
With NPPWQCGVRHDHLWVTSYHS, the amyloid nucleation score was -0.481 ± 0.32.
Turning to SGPFSTYMTRFFLDFGSVDC, the amyloid nucleation score is -1.71 ± 2.4.
In turn, EMYKSVP showed an amyloid nucleation score of 0.109 ± 0.48.
Take LRLMLCFMFYAWTALCKPRD: the amyloid nucleation score was 0.31 ± 0.23.
With MKVDNSVLMPATTHQRNMQG, the amyloid nucleation score is -0.211 ± 0.67.
On to MRGMADYC, for which the amyloid nucleation score was -0.251 ± 0.88.
With VSFTSIHMVIEDLRIKLNPA the figure was -0.426 ± 0.71; with ESHSSTKGSEWLRHSHSDGV, 0.632 ± 0.39.
Turning to FGMWYSVRISTSLVYVMGVL, the amyloid nucleation score is -0.23 ± 0.28.
The same measure for LNHLVSPKALQN: 0.017 ± 0.4; for SYCYKDGWELVLEYLFVNCT: 1.21 ± 0.45.
Regarding VIVQKSLS, the amyloid nucleation score was -0.086 ± 0.61.
In the case of AFMDKLMSPGEVIEVAL, the amyloid nucleation score was found to be 1.29 ± 0.84.
The substance GYACTFVLA gave an amyloid nucleation score of 0.136 ± 0.51.
Regarding HLTKRGLSQTKRSAALQRVG, the amyloid nucleation score came to 0.514 ± 1.2.
With RCGRSVVDGLRCFRLRMAFG the figure was -1.06 ± 1.2; with LIIKEFITLLSPCWELLRIR, 0.901 ± 0.9; with NHCFLVRWNISKSSRDVSWC, 0.142 ± 0.47.
With RARCFHSSLVVRLLRQTAER the figure was 0.192 ± 1; with TSLVVYYTSWV, -1.55 ± 2.4.
As to KSMHEVWWLLQSEGERDL, the amyloid nucleation score amounted to 0.712 ± 0.49.
In turn, GYNGCYNIFVHRSDKMAALR showed an amyloid nucleation score of 0.515 ± 0.59.
With RKWRVCDKND the figure was -0.491 ± 0.86; with VNEFLRFFLWSHLQWMI, -0.045 ± 0.28.
With VISGVCFSDIFLDVPTLWLW the figure was 0.393 ± 0.3.
For the substance NTCTMCGWICAFLRPVFCVV, the amyloid nucleation score worked out at 0.745 ± 1.2.
With PCTFWAEVRINRWSYYARQR the figure was -0.856 ± 2.4; with YLWSSCLGGDSANWLLY, 0.714 ± 0.32.
In the case of RSFVNARSSYDVGFFGWNGC, the amyloid nucleation score was 2.29 ± 0.14.
LIKGWSYPGVPCVGLLMDGK had an amyloid nucleation score of 0.27 ± 0.33.
In turn, GCSVWDCWGLRVRSVGRSDR yielded an amyloid nucleation score of 0.449 ± 0.34.
The substance LSIILRNVMCNIFSSNLITH gave an amyloid nucleation score of 0.973 ± 0.16.
The same measure for WVWDGDIGGWNVKPFHRVRG: 0.121 ± 0.58.
AGMCSIC had an amyloid nucleation score of 0.155 ± 0.36.
Turning to PICANWLMHTVMINSSSGRG, the amyloid nucleation score stood at 0.27 ± 0.32.
SRCLMRMTAPQVQEGACAVC: the amyloid nucleation score is -0.268 ± 0.38.
In the case of ISSQFGAKTIFPRSVPPQAI, the amyloid nucleation score was -0.562 ± 0.35.
In the case of IMWLLLPRYDLFFRLMYTAS, the amyloid nucleation score worked out at 0.617 ± 0.46.
LFSYMYLEVDMSESMIRYL registered an amyloid nucleation score of 1.02 ± 0.31.
With WETGIRMFVKCRR the figure was 0.906 ± 0.33; with LYGSRPYSTTKTY, -0.11 ± 0.33.
Substance MDSFVITSFSYNTSLTMRIL had an amyloid nucleation score of 1.4 ± 0.42.
For the substance IINVLC, the amyloid nucleation score was determined as 3.73 ± 0.056.
Consider AFDGVS, for which the amyloid nucleation score was -0.096 ± 1.7.
Regarding WADTPRQLGCSSSSTISCSL, the amyloid nucleation score was -0.216 ± 0.4.
EFRMFTLKLR registered an amyloid nucleation score of 1.13 ± 0.65.
For LNSDCCPNSFDKHFLSFLCM, the amyloid nucleation score was determined as 0.433 ± 0.81.
The same measure for SKYLCNMLPISDLHMGQTFN: -0.391 ± 0.44; for TVAGLT: -0.224 ± 0.71; for SGCGTGKVDVNWGLENAKAG: 0.408 ± 0.59.
Take KCFSGYWVLARLRVKFLRVG: the amyloid nucleation score was -0.275 ± 0.53.
With KDEARRGLTLCPTGKDILDY the figure was -0.026 ± 0.47; with WPCKAFFSSAGLRYGVNLA, -0.833 ± 0.9; with QEGRSFRGYTMVKYVFISRY, 1.38 ± 0.5.
For ELVYRMESIFCSELRVLGKF, the amyloid nucleation score was found to be 4.14 ± 0.15.
AGYAYSGIVAGAYWIFCNYE showed an amyloid nucleation score of 1.12 ± 0.85.
In turn, SNDVAFMAIKKHRTLSYQTD displayed an amyloid nucleation score of 0.165 ± 0.47.
On to TPLWKSII, for which the amyloid nucleation score was -0.046 ± 0.68.
Regarding SFRAKDG, the amyloid nucleation score entry was “inactive”.
Consider KWLPMKMKLWFDNSYGGQWF, for which the amyloid nucleation score was -0.265 ± 1.2.
On to MCGQLV, for which the amyloid nucleation score was -0.447 ± 0.74.
CHMKYFREVVATV showed an amyloid nucleation score of 0.186 ± 1.1.
With PIYGFLWELRR the figure was 0.486 ± 0.51; with TDVSVKLSVMMH, 1.53 ± 0.16.
LCFDVSFRYYGMGYIL had an amyloid nucleation score of 0.165 ± 0.23.
Consider VVVEKLAQLNHVKAEPMVSG, for which the amyloid nucleation score turned out to be 0.335 ± 0.57.
With RYVPVATKSSTGMSYWDIMV the figure was 0.194 ± 0.38.
For IFFSCQVGYSAIARDARWTR, the amyloid nucleation score was determined as 2.04 ± 0.14.
Turning to HSGSAE, the amyloid nucleation score was -1.28 ± 1.3.
With GRSLAFTSYCLMKGLTSVSV, the amyloid nucleation score is -0.383 ± 0.29.
The same measure for GKSLLKSYCIRMPLFSRNTL: “inactive”.
As to RMAHVKHFL, the amyloid nucleation score stood at 4.52 ± 0.082.
Take IVCFM: the amyloid nucleation score was -0.377 ± 0.6.
Regarding PFWAGG, the amyloid nucleation score entry was “inactive”.
In the case of VQFLIKPDLMTG, the amyloid nucleation score entry is “inactive”.
Regarding AGKCIVQYKGLKNVR, the amyloid nucleation score was determined as 0.91 ± 0.75.
WFNWVCCNGNAWIKDRF had an amyloid nucleation score of 7.66 ± 0.054.
The same measure for SLGIHPHVDKLLYRRFQLDY: -0.567 ± 0.77; for TSSVYLWVSQCYGMNSLLNL: -0.118 ± 0.75; for SNLLPLYP: 0.263 ± 1.1.
For the substance YWSLVVAAWRMENGWHGFLL, the amyloid nucleation score was 0.059 ± 0.39.
The same measure for AFDLTEVQFLRVVKS: -0.259 ± 0.44; for ICTSSTKGRLCRSCPLASRL: 0.205 ± 0.38; for PWCFTLFALAPP: -0.077 ± 1.7.
With PAYGTNIVAIYLWH the figure was 3.59 ± 0.093; with NCVVYDIEYICWNIGGKI, 5.71 ± 0.077; with NDTVWVVWMLKELSLYVELV, 0.329 ± 0.53.
With CPLAIVDTVHCRNSSSFSQ the figure was -0.488 ± 0.45.
Take IKWYAY: the amyloid nucleation score was 0.952 ± 0.68.
